Data as given in patent US20110130541A1.

BY-kinase A1B2 from Staphylococcus aureus
Radioactivity incorporated in A1B2 (cpm); 50 pmole BYK001, 50 pmole A1B2, incubation 0.5 min (BYK001): 29200 cpm | Radioactivity incorporated in A1B2 (cpm); 50 pmole BYK001, 50 pmole A1B2, incubation 1 min (BYK001): 71700 cpm | Radioactivity incorporated in A1B2 (cpm); 50 pmole BYK001, 50 pmole A1B2, incubation 2 min (BYK001): 133000 cpm | Radioactivity incorporated in A1B2 (cpm); 50 pmole BYK001, 50 pmole A1B2, incubation 5 min (BYK001): 326000 cpm | Radioactivity incorporated in A1B2 (cpm); 500 pmole BYK001, 50 pmole A1B2, incubation 0.5 min (BYK001): 30700 cpm | Radioactivity incorporated in A1B2 (cpm); 500 pmole BYK001, 50 pmole A1B2, incubation 1 min (BYK001): 72500 cpm | Radioactivity incorporated in A1B2 (cpm); 500 pmole BYK001, 50 pmole A1B2, incubation 2 min (BYK001): 134000 cpm | Radioactivity incorporated in A1B2 (cpm); 500 pmole BYK001, 50 pmole A1B2, incubation 5 min (BYK001): 325000 cpm | Radioactivity incorporated in A1B2 (cpm); 5000 pmole BYK001, 50 pmole A1B2, incubation 0.5 min (BYK001): 29900 cpm | Radioactivity incorporated in A1B2 (cpm); 5000 pmole BYK001, 50 pmole A1B2, incubation 1 min (BYK001): 72500 cpm | Radioactivity incorporated in A1B2 (cpm); 5000 pmole BYK001, 50 pmole A1B2, incubation 2 min (BYK001): 141000 cpm | Radioactivity incorporated in A1B2 (cpm); 5000 pmole BYK001, 50 pmole A1B2, incubation 5 min (BYK001): 324000 cpm | Radioactivity incorporated in CapO (cpm); 50 pmole BYK001, 50 pmol A1B2, 50 pmole CapO, incubation 0.5 min (BYK001): 3560 cpm | Radioactivity incorporated in CapO (cpm); 50 pmole BYK001, 50 pmol A1B2, 50 pmole CapO, incubation 1 min (BYK001): 6390 cpm | Radioactivity incorporated in CapO (cpm); 50 pmole BYK001, 50 pmol A1B2, 50 pmole CapO, incubation 2 min (BYK001): 15500 cpm | Radioactivity incorporated in CapO (cpm); 50 pmole BYK001, 50 pmol A1B2, 50 pmole CapO, incubation 5 min (BYK001): 31900 cpm | Radioactivity incorporated in CapO (cpm); 500 pmole BYK001, 50 pmol A1B2, 50 pmole CapO, incubation 0.5 min (BYK001): 3500 cpm | Radioactivity incorporated in CapO (cpm); 500 pmole BYK001, 50 pmol A1B2, 50 pmole CapO, incubation 1 min (BYK001): 6300 cpm | Radioactivity incorporated in CapO (cpm); 500 pmole BYK001, 50 pmol A1B2, 50 pmole CapO, incubation 2 min (BYK001): 15500 cpm | Radioactivity incorporated in CapO (cpm); 500 pmole BYK001, 50 pmol A1B2, 50 pmole CapO, incubation 5 min (BYK001): 31300 cpm | Radioactivity incorporated in CapO (cpm); 5000 pmole BYK001, 50 pmol A1B2, 50 pmole CapO, incubation 0.5 min (BYK001): 3510 cpm | Radioactivity incorporated in CapO (cpm); 5000 pmole BYK001, 50 pmol A1B2, 50 pmole CapO, incubation 1 min (BYK001): 6320 cpm | Radioactivity incorporated in CapO (cpm); 5000 pmole BYK001, 50 pmol A1B2, 50 pmole CapO, incubation 2 min (BYK001): 15500 cpm | Radioactivity incorporated in CapO (cpm); 5000 pmole BYK001, 50 pmol A1B2, 50 pmole CapO, incubation 5 min (BYK001): 31000 cpm | Radioactivity incorporated in CapO (cpm); 50 pmol A1B2, 50 pmole CapO, no BYK001, incubation 0.5 min (CapO): 3950 cpm | Radioactivity incorporated in CapO (cpm); 50 pmol A1B2, 50 pmole CapO, no BYK001, incubation 1 min (CapO): 7040 cpm | Radioactivity incorporated in CapO (cpm); 50 pmol A1B2, 50 pmole CapO, no BYK001, incubation 2 min (CapO): 17400 cpm | Radioactivity incorporated in CapO (cpm); 50 pmol A1B2, 50 pmole CapO, no BYK001, incubation 5 min (CapO): 34700 cpm
